Experimental data as given in patent publication US20250109177A1 (BROAD INSTITUTE, published 2025).
Where no end group is shown, it is not given here.

Experiments:
[1] = molecular target: T1, DDB1·CRBN precomplexed with PT-179 (human, UniProt Q96SW2 1-442; Q16531 1-1140); assay: BLI, immobilized MBP-degron; ratio of the KD values
[2] = molecular target: T1, DDB1·CRBN precomplexed with PT-179; assay: BLI, immobilized MBP-degron, DDB1·CRBN precomplexed with PT-179
[3] = molecular target: T2, DDB1·CRBN precomplexed with pomalidomide (human, UniProt Q96SW2 1-442; Q16531 1-1140); assay: BLI, immobilized MBP-degron, DDB1·CRBN precomplexed with pomalidomide
T2 construct: also called CRBN·pomalidomide

[4] = molecular target: T1, DDB1·CRBN precomplexed with PT-179; assay: bio-layer interferometry, immobilized MBP-degron, DDB1·CRBN precomplexed with PT-179
[5] = molecular target: T2, DDB1·CRBN precomplexed with pomalidomide; assay: bio-layer interferometry, immobilized MBP-degron, DDB1·CRBN precomplexed with pomalidomide

T1 sequence (Q96SW2 whole entry, chain 1 of 2): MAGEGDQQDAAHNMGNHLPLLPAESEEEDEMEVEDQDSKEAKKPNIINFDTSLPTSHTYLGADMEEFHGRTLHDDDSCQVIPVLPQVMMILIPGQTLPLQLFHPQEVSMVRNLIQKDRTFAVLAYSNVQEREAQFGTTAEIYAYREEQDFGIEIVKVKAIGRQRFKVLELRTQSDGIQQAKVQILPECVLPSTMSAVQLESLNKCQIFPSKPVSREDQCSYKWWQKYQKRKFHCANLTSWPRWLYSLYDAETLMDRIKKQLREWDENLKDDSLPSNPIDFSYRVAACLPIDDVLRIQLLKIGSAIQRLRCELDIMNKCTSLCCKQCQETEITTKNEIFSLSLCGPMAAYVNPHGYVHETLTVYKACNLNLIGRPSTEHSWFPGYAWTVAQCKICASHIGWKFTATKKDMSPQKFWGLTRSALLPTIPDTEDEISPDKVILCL
T1 sequence (Q16531 whole entry, chain 2 of 2): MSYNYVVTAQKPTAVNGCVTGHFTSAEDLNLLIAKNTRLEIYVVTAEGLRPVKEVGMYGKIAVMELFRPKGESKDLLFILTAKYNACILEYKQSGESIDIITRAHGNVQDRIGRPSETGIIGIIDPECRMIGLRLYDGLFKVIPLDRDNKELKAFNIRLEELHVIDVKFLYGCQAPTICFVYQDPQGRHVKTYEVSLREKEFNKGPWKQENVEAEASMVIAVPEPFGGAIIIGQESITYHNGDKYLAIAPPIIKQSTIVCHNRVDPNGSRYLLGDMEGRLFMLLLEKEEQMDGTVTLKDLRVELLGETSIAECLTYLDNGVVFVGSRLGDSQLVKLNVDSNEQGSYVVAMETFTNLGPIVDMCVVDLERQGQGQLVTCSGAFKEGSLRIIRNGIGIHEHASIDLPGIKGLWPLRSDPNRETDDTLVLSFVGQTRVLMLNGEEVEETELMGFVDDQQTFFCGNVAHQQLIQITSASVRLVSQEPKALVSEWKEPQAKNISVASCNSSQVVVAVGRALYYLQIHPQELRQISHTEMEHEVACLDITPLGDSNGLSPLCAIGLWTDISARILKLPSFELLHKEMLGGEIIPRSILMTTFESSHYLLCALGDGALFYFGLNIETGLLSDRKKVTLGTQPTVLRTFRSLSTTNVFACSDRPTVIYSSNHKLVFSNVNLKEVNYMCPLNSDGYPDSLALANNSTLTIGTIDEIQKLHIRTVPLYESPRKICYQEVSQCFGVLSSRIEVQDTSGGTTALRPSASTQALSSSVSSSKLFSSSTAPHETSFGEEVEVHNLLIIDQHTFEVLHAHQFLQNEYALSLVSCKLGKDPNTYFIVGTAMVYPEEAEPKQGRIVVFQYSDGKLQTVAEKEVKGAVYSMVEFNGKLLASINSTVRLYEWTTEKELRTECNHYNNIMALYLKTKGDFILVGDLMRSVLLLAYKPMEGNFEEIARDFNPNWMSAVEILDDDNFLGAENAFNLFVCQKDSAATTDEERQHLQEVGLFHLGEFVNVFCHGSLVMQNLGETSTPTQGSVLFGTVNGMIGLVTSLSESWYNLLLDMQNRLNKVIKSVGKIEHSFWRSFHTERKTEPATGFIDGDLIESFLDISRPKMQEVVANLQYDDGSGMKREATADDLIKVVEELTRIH
T2 sequence (Q96SW2 whole entry, chain 1 of 2): as the sequence (Q96SW2 whole entry, chain 1 of 2) above
T2 sequence (Q16531 whole entry, chain 2 of 2): as the sequence (Q16531 whole entry, chain 2 of 2) above

fold preference for CRBN precomplexed with PT-179 over CRBN precomplexed with pomalidomide [1] [fold]	Kd [2] [nM]	Kd [3] [nM]	koff [4] [s⁻¹]	kon [4] [M⁻¹ s⁻¹]	koff [5] [s⁻¹]	kon [5] [M⁻¹ s⁻¹]	Binder
2.4	123	295	0.00528	42900	0.0161	54600	LLLFCPICGFTCRQKGNLLRHINLHTGEKLFKYHLY (designed binder, not shown: large carriers, cysteine pairing not given here; also: fused to maltose binding protein, limits and linker not given here, Expressed and purified from E. coli, immobilized for BLI; also called MBP-degron) [MBP-SD40 (minimal evolved degron SD40 fused to maltose binding protein)]
–	–	217	–	–	0.0509	235000	MBP-SD0 (super degron SD0 fused to maltose binding protein) (designed binder, not shown: large carriers, also called MBP-degron) FNVLMVHKRSHTGERPLQCEICGFTCRQKGNLLRHIKLHTGEKPFKCHLCNYACQRRDAL
